Measurements: patent publication US11447754B2, “In vitro methods of chemical conversion using non-stereospecific glutathione lyases” (WISCONSIN ALUMNI RESEARCH FOUNDATION, priority 2017, dated 2022)

What was measured:
[1] = substrate: COc1cc(C(=O)[C@H](CO)SC[C@H](NC(=O)CC[C@H](N)C(=O)O)C(=O)NCC(=O)O)ccc1O; experiment: Kinetics of GS-HPV cleavage into HPV by NaGSTNu; type: biochemical, Novosphingobium aromaticivorans DSM 12444; settings: other: GS-HPV into HPV, 8 nM enzyme, GSH, pH 8.5, 25° C.
Text: (§1) Enzyme purifications. Genes Saro_2595, E. coli yghU, E. coli yfcG, and SLG_04120 from Sphingobium sp. SYK-6 (codon-optimized for expression in E. coli) were individually cloned into plasmid pVP302K (Gall and Ralph et al. 2014) so that transcripts from the plasmids would be translated into proteins containing a His8-tag connected to the N-terminus via a tobacco etch virus (TEV) protease recognition site. Recombinant proteins were expressed in E. coli B834 (Wood 1966, Doherty et al. 1995) containing plasmid pRARE2 (Novagen, Madison, Wis.) grown for ˜24 h at 27° C. in ZYM-5052 Autoinduction Medium (Studier 2005) containing kanamycin and chloramphenicol. Recombinant proteins were purified essentially as described previously (Gall and Kim et al. 2014); see below for modifications to the procedure. After removal of His8-tags using TEV protease, recombinant proteins retained a Ser-Ala-Ile-Ala-Gly-peptide on their N-termini, derived from the linker between the protein and the TEV protease recognition site. Recombinant LigE and LigF1 from N. aromaticivorans were purified as previously described (Gall and Ralph et al. 2014).
(§2) Kinetics analysis of GS-HPV cleavage. The Reaction Buffer (RB) consisted of 25 mM Tris-HCl (pH 8.5) and 25 mM NaCl. The β(R)- and β(S)-stereoisomers of GS-HPV were separately generated by incubating racemic MPHPV (0.46 mM) in RB with 5 mM reduced glutathione (GSH) and either 38 μg/mL LigF1 or 36 μg/mL LigE, respectively, for several h. This sample, containing a single GS-HPV stereoisomer, guaiacol, and the unreacted MPHPV stereoisomer, was diluted with RB to achieve the desired concentration of GS-HPV for the time course reaction (0.005, 0.011, 0.022, 0.096, or 0.193 mM). An additional 5 mM GSH (dissolved in RB) was added prior to initiation of each time course. At time zero, 100 μL of the indicated enzyme sample (resuspended in RB) was combined with 1800 μL of the diluted GS-HPV reaction mixture to achieve final concentrations of 8 nM NaGSTNu, 195 nM ecYghU, 195 nM ecYfcG, or 47 nM (for β(R)-GS-HPV reactions) or 18 nM (for β(S)-GS-HPV reactions) SYK6GSTNu. Assays were performed at 25° C., and at specified time points, 300 μL of the reaction was removed and combined with 100 μL 1 M HCl (Acros Organics; Geel, Belgium) to stop the reaction before HPLC analysis to quantify HPV formed.
(§3) HPLC analysis. After extracellular aromatics were identified using LC-MS, routine analysis and quantification of aromatics were performed using an Ultra AQ C18 5 μm column (Restek, Bellefonte, Pa.) attached to a System Gold HPLC (Beckman Coulter, Brea, Calif.) with running buffers and chromatography conditions described in FIG. 14. The eluent was analyzed for light absorbance between 191 and 600 nm, and absorbances at 280 nm were used for quantification of aromatic metabolites by comparing peak areas to those of standards (retention times of measured metabolites are shown in FIG. 15).

[2] = substrate: COc1cc(C(=O)[C@@H](CO)SC[C@H](NC(=O)CC[C@H](N)C(=O)O)C(=O)NCC(=O)O)ccc1O; experiment: Kinetics of GS-HPV cleavage into HPV by NaGSTNu; type: biochemical, Novosphingobium aromaticivorans DSM 12444; settings: other: GS-HPV into HPV, 8 nM enzyme, GSH, pH 8.5, 25° C.
Text: as §1, §2, §3

[3] = substrate: COc1cc(C(=O)[C@H](CO)SC[C@H](NC(=O)CC[C@H](N)C(=O)O)C(=O)NCC(=O)O)ccc1O; experiment: Kinetics of GS-HPV cleavage into HPV by ecYfcG; type: biochemical, Escherichia coli DH5α; settings: other: GS-HPV into HPV, 195 nM enzyme, GSH, pH 8.5, 25° C.
Text: as §1, §2, §3

[4] = substrate: COc1cc(C(=O)[C@@H](CO)SC[C@H](NC(=O)CC[C@H](N)C(=O)O)C(=O)NCC(=O)O)ccc1O; experiment: Kinetics of GS-HPV cleavage into HPV by ecYfcG; type: biochemical, Escherichia coli DH5α; settings: other: GS-HPV into HPV, 195 nM enzyme, GSH, pH 8.5, 25° C.
Text: as §1, §2, §3

[5] = Kinetics of GS-HPV cleavage, comparisons between enzymes over both stereoisomers; type: biochemical
Method: as §2, §3

B1: Novosphingobium aromaticivorans DSM 12444 NaGSTNu (Saro_2595), Nu-class glutathione-S-transferase, wild type, SEQ ID NO:18; recombinant, residues 21-313 of SEQ … (protein)
chain: MSSEYVPPKVWKWDKANGGAFASVNRPVAGPTSERELPVGKHPFQVYSLGTPNGQKATIMLEELLQLGFSEAEYDAWLIKIFEGDQFTSGFVDINPNSKIPAMVDRSGPEPFRVFESGAILMHLAEKFGVFLPTSGPARAECLSWLFWQVGSAPFIGGGFGHFYNYAPIKIEYAIDRYAMETKRLFDVANRRLAESRYLAGDEYTIADLATYTWFGNIYRGEAYGEAATFLSMHEYEHVGRWVGEIDARPGVLRGRLVNSSKGLAERHDASDFDALPPESLQAIVKGF
notes: E. coli B834
[1]
  Km: 8 µM
  kcat: 57 s⁻¹
  kcat/Km: 8e+06 M⁻¹ s⁻¹
[2]
  Km: 40 µM
  kcat: 80 s⁻¹
  kcat/Km: 1.9e+06 M⁻¹ s⁻¹

B2: Escherichia coli ecYfcG, Nu-class glutathione-S-transferase, wild type, SEQ ID NO:30 (Escherichia coli K-12) (protein)
chain: MIDLYFAPTPNGHKITLFLEEAELDYRLIKVDLGKGGQFRPEFLRISPNNKIPAIVDHSPADGGEPLSLFESGAILLYLAEKTGLFLSHETRERAATLQWLFWQVGGLGPMLGQNHHFNHAAPQTIPYAIERYQVETQRLYHVLNKRLENSPWLGGENYSIADIACWPWVNAWTRQRIDLAMYPAVKNWHERIRSRPATGQALLKAQLGDERSDS
notes: E. coli B834
[3]
  Km: 130 µM
  kcat: 0.017 s⁻¹
  kcat/Km: 140 M⁻¹ s⁻¹
[4]
  Km: 160 µM
  kcat: 0.04 s⁻¹
  kcat/Km: 200 M⁻¹ s⁻¹

B3: ecYfcG: Nu-class GST from Escherichia coli DH5a, SEQ ID NO:30 (protein, listed as Escherichia coli)
chain: B2 chain
[5]
  KM, fold higher than those of ecYghU: ~10 fold
  kcat, fold lower than those of ecYghU: ~10 fold
  kcat/KM with GS-HPV, fold lower than for ecYghU: ~100 fold
  kcat/KM with GS-HPV, fold lower than those of NaGSTNu: ~10^4 fold
